Patent publication US20220081480A1 (Merck KGaA, published 2022)
Where “and” joins values, the source holds several entries; their conditions need not be identical. Identical values can stand only once. Like-named read-outs stand apart in the source and are kept apart here. Values belong to the binder of their own block, whether it stands above or below them.

Key:
[1] = target: T1, human TIM-3 on huTIM-3-CHO-S cells (human, UniProt Q8TDQ0 22-202); test: FACS on CHO-S-hTIM-3 cells
T1 construct: Membrane-anchored human TIM-3 ECD (NP_116171) stably expressed on CHO-S cells; also called CHO-S-hTIM3; CHO-S-hTIM-3; not shown: membrane anchor of the expression vector, not described

[2] = target: T2, human TIM-3 ECD with 6-His tag (hu TIM-3-His6) (human, UniProt Q8TDQ0 22-200); test: SPR (Biacore), relative to 3903E11 (VH1.0, VL1.0)
T2 construct: Novoprotein Cat# C356; the entry includes the His tag; also called hTIM3-His; human TIM3-His6

cyno TIM-3-His6 [3] = target: T3, cyno TIM-3-His6 (cynomolgus monkey); test: SPR, antibody captured, TIM-3 as analyte
T3 construct: Made in HEK293 cells; not shown: 6-His tag
T3 chain: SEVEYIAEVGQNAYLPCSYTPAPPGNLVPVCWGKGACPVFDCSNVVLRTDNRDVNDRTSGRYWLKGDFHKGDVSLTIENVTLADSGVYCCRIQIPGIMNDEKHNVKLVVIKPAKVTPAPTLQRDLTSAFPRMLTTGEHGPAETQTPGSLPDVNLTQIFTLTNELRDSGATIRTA

[4] = target: T2, human TIM-3 ECD with 6-His tag (hu …); test: SPR, antibody captured, TIM-3 as analyte
[5] = target: T1, human TIM-3 on huTIM-3-CHO-S cells; test: cell-based or functional assay
cyno TIM-3-muFc = target: T4, cyno TIM-3-muFc (cynomolgus monkey); test: ELISA, antigen coated
T4 construct: Made in HEK293 cells; also called cyno TIM3-mFc; not shown: murine Fc
T4 chain: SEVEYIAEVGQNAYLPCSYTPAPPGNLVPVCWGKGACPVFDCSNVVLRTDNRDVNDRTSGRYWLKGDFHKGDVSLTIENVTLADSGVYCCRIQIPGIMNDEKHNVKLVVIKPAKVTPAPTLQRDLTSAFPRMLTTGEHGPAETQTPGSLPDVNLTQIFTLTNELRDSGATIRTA

cyno TIM-3-His6 [6] = target: T3, cyno TIM-3-His6; test: ELISA, antigen coated
[7] = target: T2, human TIM-3 ECD with 6-His tag (hu …); test: ELISA, antigen coated
cyno TIM-3-His6 [8] = target: T3, cyno TIM-3-His6; test: SPR (Biacore)
[9] = target: T2, human TIM-3 ECD with 6-His tag (hu …); test: SPR (Biacore)
[10] = target: T1, human TIM-3 on huTIM-3-CHO-S cells; test: flow cytometry on CHO-S-hTIM3 cells
[11] = target: T5, cyno TIM-3 on cynoTIM-3-Expi293F cells (cynomolgus monkey); test: flow cytometry on 293F-cynoTIM-3 cells
T5 construct: Membrane-anchored cyno TIM-3 ECD (XP_005558438) transiently expressed on Expi293F cells; not shown: membrane anchor of the expression vector, not described
T5 chain: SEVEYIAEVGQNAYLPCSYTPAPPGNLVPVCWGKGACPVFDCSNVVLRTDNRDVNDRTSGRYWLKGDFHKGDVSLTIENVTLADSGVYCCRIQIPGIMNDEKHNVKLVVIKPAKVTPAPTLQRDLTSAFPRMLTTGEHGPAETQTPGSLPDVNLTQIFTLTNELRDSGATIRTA

[12] = target: T6, human TIM-3 on primary human blood cells (CD14+ monocytes in whole blood; PBMCs) (human, UniProt Q8TDQ0 22-301); test: flow cytometry on fresh human whole blood, CD14+ monocytes; unoccupied TIM-3 detected with the competing anti-TIM-3 (2E2)-APC; donors KP46231, KP46315, KP46318 (not separated)
T6 construct: whole, on cells; Endogenous receptor on donor cells; also called TIM-3 on CD14+ monocytes

[13] = target: T6, human TIM-3 on primary human blood …; test: target occupancy on CD14+ monocytes in human whole blood, flow cytometry; free TIM-3 detected with competing anti-TIM-3(2E2)-APC
[14] = target: T6, human TIM-3 on primary human blood …; test: flow cytometry on fresh human whole blood, CD14+ monocytes; unoccupied TIM-3 detected with the competing anti-TIM-3 (2E2)-APC; donor KP46233
FCγRIIa (CD32a)_H131 [15] = target: T7, FCγRIIa (CD32a)_H131 (UniProt P12318 36-218, limits assumed); test: BLI (Octet), antibody on FAB2G tips
T7 construct: Bought
T7 sequence (looked up): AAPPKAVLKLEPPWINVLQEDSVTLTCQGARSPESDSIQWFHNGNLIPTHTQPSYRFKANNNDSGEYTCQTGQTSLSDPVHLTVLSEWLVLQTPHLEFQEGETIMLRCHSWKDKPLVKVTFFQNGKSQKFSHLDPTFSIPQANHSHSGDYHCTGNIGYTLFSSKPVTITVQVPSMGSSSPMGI

FCγRIIIa (CD16a)_V158 [16] = target: T8, FCγRIIIa (CD16a)_V158 (UniProt P08637 17-208); test: BLI (Octet), antibody on FAB2G tips
T8 construct: Bought

FCγRI (CD64) [17] = target: T9, FCγRI (CD64) (UniProt P12314 16-288); test: BLI (Octet), antibody on FAB2G tips
T9 construct: Bought

FcRn = FcRn (UniProt P55899 24-297; P61769 21-119, limits assumed); test: BLI (Octet), steady state
[18] = target: T10, human TIM-3 ECD fused to human IgG1 Fc domain (huTIM-3-Fc) (human, UniProt Q8TDQ0 22-202); test: competition ELISA: huTIM-3-Fc-biotin (0.5 µg/ml) binding to coated galectin-9
T10 construct: extracellular domain; Bought; Biotinylated (Sulfo-NHS-LC-Biotin) in the galectin-9 ELISAs; also called Human-TIM3-biotin; huTIM-3-Fc-biotin; not shown: human IgG1 Fc domain

[19] = target: T11, wild-type TIM-3 (hu TIM-3), HEK-expressed (human, UniProt Q8TDQ0 22-202, limits assumed); test: SPR
T11 construct: Soluble protein of the mutagenesis study

[20] = target: T10, human TIM-3 ECD fused to human IgG1 Fc …; test: ELISA: plate-bound rhTIM-3-Fc pre-incubated with antibody, His-tagged CEACAM1 detected
[21] = target: T11, wild-type TIM-3 (hu TIM-3), …; test: SPR; remark: listed apart in the source
FCγRI (CD64) [22] = target: T9, FCγRI (CD64); test: BLI (Octet), antibody on FAB2G tips, kinetic fit
[23] = target: T10, human TIM-3 ECD fused to human IgG1 Fc …; test: competition ELISA: huTIM-3-Fc-biotin (1 µg/ml) binding to coated galectin-9
[24] = target: T12, marmoset TIM-3 ECD with 6-His tag (marmoset TIM-3-His6) (marmoset); test: SPR, antibody captured, TIM-3 as analyte
T12 construct: Novoprotein Cat# CM64; the entry includes the His tag
T12 chain: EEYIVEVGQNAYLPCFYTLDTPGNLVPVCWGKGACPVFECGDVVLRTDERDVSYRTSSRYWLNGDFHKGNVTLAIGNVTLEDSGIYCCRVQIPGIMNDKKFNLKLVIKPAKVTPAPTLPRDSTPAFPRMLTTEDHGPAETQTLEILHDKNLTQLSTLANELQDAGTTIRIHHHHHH

cyno TIM-3-His6 [25] = target: T3, cyno TIM-3-His6; test: SPR, antibody captured, TIM-3 as analyte
[26] = target: T2, human TIM-3 ECD with 6-His tag (hu …); test: SPR, antibody captured, TIM-3 as analyte; remark: listed apart in the source
[27] = target: T1, human TIM-3 on huTIM-3-CHO-S cells; test: flow cytometry on CHO-S-hTIM-3 cells
FCγRIIa (CD32a)_H131 [28] = target: T7, FCγRIIa (CD32a)_H131; test: BLI (Octet), steady state
FCγRIIIa (CD16a)_V158 [29] = target: T8, FCγRIIIa (CD16a)_V158; test: BLI (Octet), steady state
[30] = target: T12, marmoset TIM-3 ECD with 6-His tag …; test: ELISA, antigen coated
cyno TIM-3-His6 [31] = target: T3, cyno TIM-3-His6; test: ELISA, antigen coated
[32] = target: T2, human TIM-3 ECD with 6-His tag (hu …); test: ELISA, antigen coated; remark: listed apart in the source

MFI at 0.1 µg/ml [1]: 137 MFI
MFI at 1 µg/ml [1]: 1390 MFI
MFI at 10 µg/ml [1]: 1490 MFI
Human TIM3 KD Ratio to Parent [2]: 1
Kd (cyno TIM-3-His6 [3]): 12 nM
Kd [4]: 3.8 nM
ADCC (51Cr release), Donor 1, EC50 [5]: 0.24 nM
ADCC (51Cr release), Donor 2, EC50 [5]: 0.11 nM
EC50 (cyno TIM-3-muFc): 0.01 nM
EC50 (cyno TIM-3-His6 [6]): 0.01 nM
EC50 [7]: 0.01 nM
Kd (cyno TIM-3-His6 [8]): 6.9 nM
Kd [9]: 3.5 nM
EC50 [10]: 0.9 nM
EC50 [11]: 2 nM
B1: Parental Antibody 3903E11 (VL1.0, VH1.0) (antibody, human IgG1, lambda)
heavy: not shown
light: SYELTQPRSVSGSPGQSVTISCTGTSSDVGGYNYVSWYQQHPGKAPKLMIFDVSKRPSGVPDRFSGSKSGNTASLTISGLQAEDEADYYCSSYADSVVFGGGTKVTVLGQPKAAPSVTLFPPSSEELQANKATLVCLISDFYPGAVTVAWKADSSPVKAGVETTTPSKQSNNKYAASSYLSLTPEQWKSHKSYSCQVTHEGSTVEKTVAPTECS
notes: Human IgG1 (IgG1m3), lambda light chain; also called 3903E11 (VH1.0, VL1.0)

EC50 (read off the curve) [12]: ~0.07 µg/mL
EC50 [13]: 0.111 µg/mL
EC50 (read off the curve) [14]: ~0.04 µg/mL
B2: anti-TIM-3 (A16-019-1) (antibody)
heavy: not shown
light: QSALTQPRSVSGSPGQSVTISCTGTSSDVGGYNYVSWYQQHPGKAPKLMIYDVSKRPSGVPDRFSGSKSGNTASLTISGLQAEDEADYYCSSYADSVVFGGGTKVTVLGQPKAAPSVTLFPPSSEELQANKATLVCLISDFYPGAVTVAWKADSSPVKAGVETTTPSKQSNNKYAASSYLSLTPEQWKSHKSYSCQVTHEGSTVEKTVAPTECS
notes: Said to be identical to M6903 but produced in Expi293F, not CHOK1SV, cells

binding result (FCγRIIa (CD32a)_H131 [15]): no binding (tested: 4000 nM to 62.5 nM)
binding result (FCγRIIIa (CD16a)_V158 [16]): no binding (tested: 4000 nM to 62.5 nM)
binding result (FCγRI (CD64) [17]): no binding (tested: 100 nM to 1.56 nM)
Kd (FcRn): 850 nM
IC50 [18]: 7.46 nM
Kd [19]: 5.7 nM
IC50 [20]: 0.353 nM and 0.053 µg/mL
Kd [21]: 6.2 nM
B3: anti-TIM-3-3903E11(VL1.3,VH1.2)-IgG2h(FN-AQ,322A)-delK (antibody)
heavy: not shown
light: QSALTQPRSVSGSPGQSVTISCTGTSSDVGGYNYVSWYQQHPGKAPKLMIYDVSKRPSGVPDRFSGSKSGNTASLTISGLQAEDEADYYCSSYADSVVFGGGTKVTVLGQPKAAPSVTLFPPSSEELQANKATLVCLISDFYPGAVTVAWKADSSPVKAGVETTTPSKQSNNKYAASSYLSLTPEQWKSHKSYSCQVTHEGSTVEKTVAPTECS
notes: Effector-negative engineered IgG2 with IgG1 hinge (C220S), F296A, N297Q, K322A, C-terminal Lys deleted; lambda light chain; also called M6903; copies: 2 + 2

Kd (FCγRI (CD64) [22]): 1.7 nM
MFI at 0.1 µg/ml [1]: 140 MFI
MFI at 1 µg/ml [1]: 1310 MFI
MFI at 10 µg/ml [1]: 1910 MFI
IC50 [23]: 2.4 nM
Kd [24]: 11 nM
Kd (cyno TIM-3-His6 [25]): 14 nM
Kd [26]: 2.4 nM
EC50 [27]: 2.6 nM
Kd (FcRn): 805 nM
Kd (FCγRIIa (CD32a)_H131 [28]): 630 nM
Kd (FCγRIIIa (CD16a)_V158 [29]): 100 nM
EC50 [30]: 0.01 nM
EC50 (cyno TIM-3-His6 [31]): 0.02 nM
EC50 [32]: 0.01 nM
Kd (cyno TIM-3-His6 [8]): 5.3 nM
Kd [9]: 1.6 nM
B4: 3903E11 (VL1.3,VH1.2) IgG1 (antibody)
heavy: not shown
light: QSALTQPRSVSGSPGQSVTISCTGTSSDVGGYNYVSWYQQHPGKAPKLMIYDVSKRPSGVPDRFSGSKSGNTASLTISGLQAEDEADYYCSSYADSVVFGGGTKVTVLGQPKAAPSVTLFPPSSEELQANKATLVCLISDFYPGAVTVAWKADSSPVKAGVETTTPSKQSNNKYAASSYLSLTPEQWKSHKSYSCQVTHEGSTVEKTVAPTECS
notes: also called 3903E11 (VH1.2, VL1.3); anti-TIM3-3903E11(VL1.3, VH1.2)-IgG1; copies: 2 + 2
